# Legend:
# [1] = target: T1, KOC1-KIF11 complex (Homo sapiens, UniProt P52732); assay: Immunoprecipitation of endogenous KOC1-KIF11 complex after dominant-negative transfection; type: cell-based
# T1 construct: endogenous in cells; host or cells: LC319 (KOC1DEL3) and A549 (KOC1DEL2)
# T1 sequence (P52732 1-1056): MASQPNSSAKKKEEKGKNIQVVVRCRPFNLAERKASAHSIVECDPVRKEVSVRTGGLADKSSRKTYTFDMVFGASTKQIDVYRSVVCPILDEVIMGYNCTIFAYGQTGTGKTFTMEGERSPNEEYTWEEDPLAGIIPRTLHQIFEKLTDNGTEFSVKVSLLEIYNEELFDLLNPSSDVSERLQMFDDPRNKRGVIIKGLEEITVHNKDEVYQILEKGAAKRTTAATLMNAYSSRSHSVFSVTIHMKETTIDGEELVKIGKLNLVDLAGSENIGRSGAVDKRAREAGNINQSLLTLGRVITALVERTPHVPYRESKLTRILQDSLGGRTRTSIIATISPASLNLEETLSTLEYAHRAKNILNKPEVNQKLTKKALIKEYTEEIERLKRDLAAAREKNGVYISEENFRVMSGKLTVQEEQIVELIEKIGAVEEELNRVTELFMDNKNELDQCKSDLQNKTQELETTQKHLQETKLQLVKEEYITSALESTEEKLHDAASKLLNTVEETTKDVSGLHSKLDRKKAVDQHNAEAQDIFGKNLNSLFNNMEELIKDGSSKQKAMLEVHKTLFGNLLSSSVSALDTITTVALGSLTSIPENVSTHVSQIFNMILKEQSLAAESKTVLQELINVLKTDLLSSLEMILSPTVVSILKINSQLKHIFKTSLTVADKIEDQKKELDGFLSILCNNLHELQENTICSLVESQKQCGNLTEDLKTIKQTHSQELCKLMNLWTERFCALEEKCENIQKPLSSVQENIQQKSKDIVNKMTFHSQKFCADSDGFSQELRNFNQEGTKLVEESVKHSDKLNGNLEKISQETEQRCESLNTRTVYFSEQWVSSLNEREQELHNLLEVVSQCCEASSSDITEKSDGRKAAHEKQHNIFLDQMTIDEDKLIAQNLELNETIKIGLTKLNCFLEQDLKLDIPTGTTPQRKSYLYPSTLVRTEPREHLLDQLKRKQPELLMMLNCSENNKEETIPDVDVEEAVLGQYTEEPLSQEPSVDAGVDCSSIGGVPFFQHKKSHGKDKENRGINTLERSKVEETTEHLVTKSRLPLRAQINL
# Description: We performed dominant-negative assays using the KOC1 deletion mutants to investigate the functional role of the KOC1-KIF11 complex in growth or survival of lung-cancer cells. The KOC1DEL3 and KOC1DEL2 construct (FIG. 3a; 10 μg), mock plasmid (10 μg), or plasmid mixtures of both constructs in the final dose of 10-μg DNA (KOC1DEL3 or KOC1DEL2 vs mock (μg), 7.5:2.5; 5:5; or 2.5:7.5, individually) were transfected into LC319 cells. The transfected cells were cultured for 7 days in the presence of G418 and their viability was measured by triplicate MTT assays.
# To investigate the functional significance of KOC1-KIF11 interaction for growth or survival of lung-cancer cells, a deletion fragment of KOC1 containing the two RRMs, which was able to interact with KIF11 (KOC1DEL3; FIG. 3a, b) was examined for a dominant-negative function of suppressing direct interaction between endogenous KOC1 and KIF11. […] We also confirmed that transfection of construct containing only KH-domains control have no effect on proliferation. […]
# [2] = system: RAB35 mRNA; assay: Northwestern blot analysis with DIG-labeled RAB35 mRNA; type: binding; conditions: deletion mutants expressed in A549 cells, compared to full-length KOC1
# Description: Immunoprecipitated extracts from cells transfected with the KOC1 deletion mutants (μM) were boiled in 2×SDS-sample buffer, electrophoresed through 10-20% gradient polyacrylamide gels (BIO-RAD) and transferred to a polyvinylidene difluoride membrane (Hybond-P). The membrane was then blocked for 1 hour at room temperature in blocking buffer (10 mM Tris-HCl (pH 7.8), 150 mM NaCl, 1 mg/ml yeast tRNA), and washed twice with 50 ml of 10 mM Tris-HCl (pH 7.8) for 5 min and incubated with DIG-labeled RNA probe in 5 ml of NWB buffer (10 mM Tris-HCl (pH 7.8), 1 mM EDTA, 50 mM NaCl, 0.02% Ficoll, 0.02% polyvinyl pyrrolidone, 0.02% BSA) for 2 hours at room temperature. The membrane was washed four times with NWB buffer and the RNA probe bound to the proteins was then detected using DIG nucleic acid detection kit (Roche) according to the supplier's protocol.
# To determine the region of KOC1 that is required for binding to KOC1-associated mRNAs, we performed northwestern blot analysis using immunoprecipitated recombinant proteins of KOC1 deletion-mutants expressed in A549 cells (FIG. 4a) and DIG-labeled RAB35 mRNA, which is one of the KOC1 associated mRNAs.
# [3] = target: T2, endogenous KIF11 (Homo sapiens, UniProt P52732); assay: Immunoprecipitation of KOC1 deletion mutants with endogenous KIF11; type: binding
# T2 construct: endogenous in cells
# T2 sequence (P52732 1-1056): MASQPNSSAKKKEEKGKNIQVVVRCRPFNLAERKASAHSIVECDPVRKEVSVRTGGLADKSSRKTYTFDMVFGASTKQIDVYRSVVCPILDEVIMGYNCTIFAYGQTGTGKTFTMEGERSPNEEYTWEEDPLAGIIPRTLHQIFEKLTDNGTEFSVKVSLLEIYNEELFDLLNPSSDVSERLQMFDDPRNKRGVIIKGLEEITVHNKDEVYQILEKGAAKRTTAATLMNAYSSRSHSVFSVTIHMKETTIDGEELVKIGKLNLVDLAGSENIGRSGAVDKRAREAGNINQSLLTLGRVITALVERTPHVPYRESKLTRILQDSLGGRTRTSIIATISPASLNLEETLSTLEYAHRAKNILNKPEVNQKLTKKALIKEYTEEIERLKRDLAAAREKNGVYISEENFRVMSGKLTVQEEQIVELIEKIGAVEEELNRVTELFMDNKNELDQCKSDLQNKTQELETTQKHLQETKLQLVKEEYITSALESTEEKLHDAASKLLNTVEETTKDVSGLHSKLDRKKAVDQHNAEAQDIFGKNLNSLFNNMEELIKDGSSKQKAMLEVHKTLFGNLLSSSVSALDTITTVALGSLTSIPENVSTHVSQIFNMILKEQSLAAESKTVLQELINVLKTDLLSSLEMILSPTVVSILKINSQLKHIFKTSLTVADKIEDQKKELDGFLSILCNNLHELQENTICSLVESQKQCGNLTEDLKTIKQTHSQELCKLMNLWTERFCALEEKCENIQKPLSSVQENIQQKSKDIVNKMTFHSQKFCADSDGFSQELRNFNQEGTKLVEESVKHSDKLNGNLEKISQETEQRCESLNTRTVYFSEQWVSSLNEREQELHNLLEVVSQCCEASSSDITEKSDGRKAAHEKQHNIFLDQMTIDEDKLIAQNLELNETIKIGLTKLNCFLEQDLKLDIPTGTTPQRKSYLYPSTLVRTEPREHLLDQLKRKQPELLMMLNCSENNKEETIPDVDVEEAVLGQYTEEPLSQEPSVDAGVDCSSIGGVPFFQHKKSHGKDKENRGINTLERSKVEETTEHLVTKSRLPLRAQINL
# [4] = system: A549 cells; assay: Triplicate MTT assay of cell viability, A549; type: cell-based, human; conditions: A549, plasmid dose-dependent vs mock; P=0.0006 KOC1DEL2 vs mock
# [5] = system: LC319 cells; assay: Triplicate MTT assay of cell viability, LC319; type: cell-based, human; conditions: LC319, plasmid 2.5-10 μg vs mock, 7 days with G418; P<0.001 KOC1DEL3 vs mock
# Description: Using 30 μl of Lipofectamine 2000 (Invitrogen), 10 μg of siRNA-expression vector were transfected into NSCLC cell lines, A549 and LC319, both endogenously over-expressing KOC1, KIF11, NMU, GHSR1b, NTSR1, RAB35, and FOXM1. […] The transfected cells were cultured for five days in the presence of appropriate concentrations of geneticin (G418), and then, cell numbers and viability were measured by Giemsa staining and triplicate MTT assays. The target sequences of the synthetic oligonucleotides for RNAi were as follows: control 1 (EGFP: enhanced green fluorescent protein (EGFP) gene, a mutant of Aequorea victoria EGFP), 5′-[…]-3′ (SEQ.ID.NO.29); control 2 (Luciferase: Photinus pyralis luciferase gene), 5′-[…]-3′ (SEQ.ID.NO.30); control 3 (Scramble: chloroplast Euglena gracilis gene coding for 5S and 16S rRNAs), 5′-[…]-3′ (SEQ. ID. NO.31);
# We performed dominant-negative assays using the KOC1 deletion mutants to investigate the functional role of the KOC1-KIF11 complex in growth or survival of lung-cancer cells. […] The transfected cells were cultured for 7 days in the presence of G418 and their viability was measured by triplicate MTT assays.
complex formation between endogenous KOC1 and KIF11 ([1]; A549 cells over-expressing KOC1DEL2),interaction with endogenous KIF11 (immunoprecipitation) ([3]; A549 cells),complex formation between endogenous KOC1 and KIF11 ([1]; LC319 cells over-expressing the RRM domains),interaction with endogenous KIF11 (immunoprecipitation) ([3]; LC319 cells),Molecule,binding to RAB35 mRNA (northwestern blot) [2],"cell viability (MTT), dominant-negative assay [4]","cell viability (MTT), dominant-negative assay [5]"
reduced complex formation,detected interaction,–,–,"KOC1DEL2: KOC1 deletion mutant 2×RRM+2×KH, positions 1 to 406 of SEQ ID NO:105 (protein, listed as Homo sapiens) MNKLYIGNLSENAAPSDLESIFKDAKIPVSGPFLVKTGYAFVDCPDESWALKAIEALSGKIELHGKPIEVEHSVPKRQRIRKLQIRNIPPHLQWEVLDSLLVQYGVVESCEQVNTDSETAVVNVTYSSKDQARQALDKLNGFQLENFTLKVAYIPDEMAAQQNPLQQPRGRRGLGQRGSSRQGSPGSVSKQKPCDLPLRLLVPTQFVGAIIGKEGATIRNITKQTQSKIDVHRKENAGAAEKSITILSTPEGTSAACKSILEIMHKEAQDIKFTEEIPLKILAHNNFVGRLIGKEGRNLKKIEQDTDTKITISPLQELTLYNPERTITVKGNVETCAKAEEEIMKKIRESYENDIASMNLQAHLIPGLNLNALGLFPPTSGMPPPTSGPPSAMTPPYPQFEQSETE",very weak binding affinities,significant dose-dependent decreases,–
–,–,reduce complex formation,detected interaction,"KOC1DEL3: KOC1 deletion mutant 2×RRM without KH, positions 1-197 of SEQ ID NO:105 (protein, listed as Homo sapiens) MNKLYIGNLSENAAPSDLESIFKDAKIPVSGPFLVKTGYAFVDCPDESWALKAIEALSGKIELHGKPIEVEHSVPKRQRIRKLQIRNIPPHLQWEVLDSLLVQYGVVESCEQVNTDSETAVVNVTYSSKDQARQALDKLNGFQLENFTLKVAYIPDEMAAQQNPLQQPRGRRGLGQRGSSRQGSPGSVSKQKPCDLP",did not bind,–,significant dose-dependent decreases

# From US7972772B2, “KIF11 and method for diagnosing non-small cell lung cancer” (Oncotherapy Science, Inc., priority 2004, dated 2011)
